*1 amine or outer side, *2 acyl side, *3 side chain or, on linkers, in order; H or OH if unused. Where no end group is shown, it is not given here. [ ]: non-standard residue; d: D form. ReO = oxorhenium(V), one metal core binding both hemi-chelators, from trichlorooxobis(triphenylphosphine)rhenium(V); GlyN3 = N-(3-aminopropyl)glycine amide, Cys acylated on the omega-amine, NC(=O)CN(CCCN[*:3])[*:1]; GlyN6 = Gly building unit carrying an omega-amine (Cys attached there); N(2-Aminoethyl)Gly = O=C(CN(CCN[*:3])[*:1])[*:2]
B1: ReO-GF-36 (peptide)
peptide: CXFWWKTFG
modifications: not fully specified; D-Cys at 1; GABA at 2 (written X); D-Trp at 5; GlyN2 building unit at 9 with D-Cys on its omega-amine; C-terminal amide; ReO (oxorhenium(V)) chelated by the two Cys closes the ring
B2: ReO-GF-20 (peptide)
peptide: CXFWWKTFG
modifications: not fully specified; D-Cys at 1; GABA at 2 (written X); D-Trp at 5; GlyN3 building unit at 9 with D-Cys on its omega-amine; C-terminal amide; ReO (oxorhenium(V)) chelated by the two Cys closes the ring
B3: ReO-GF-34 (peptide)
peptide: CXFWWKTFG
modifications: L-Cys at 1; GABA at 2 (written X); D-Trp at 5; GlyN2 building unit at 9 with D-Cys on its omega-amine; C-terminal amide; ReO (oxorhenium(V)) chelated by the two Cys closes the ring
B4: ReO-GF-29 (peptide)
peptide: CFWWKTFG
modifications: not fully specified; L-Cys at 1; D-Trp at 4; GlyN3 building unit at 8 with L-Cys on its omega-amine; C-terminal amide; ReO (oxorhenium(V)) chelated by the two Cys closes the ring
notes: also called ReO-LCys*-Phe-Trp-DTrp-Lys-Thr-Phe-GlyN3(LCys*)-NH2
B5: ReO-GF-7 (peptide)
peptide: CXFWWKTFG
modifications: not fully specified; D-Cys at 1; beta-Ala at 2 (written X); D-Trp at 5; GlyN6 building unit at 9 with L-Cys on its omega-amine; C-terminal amide; ReO (oxorhenium(V)) chelated by the two Cys closes the ring
B6: ReO-GF-1 (peptide)
peptide: CXFWWKTFG
modifications: L-Cys at 1; GABA at 2 (written X); D-Trp at 5; GlyN6 building unit at 9 with L-Cys on its omega-amine; C-terminal amide; ReO (oxorhenium(V)) chelated by the two Cys closes the ring
B7: ReO-GF-43 (peptide)
peptide: CGFWWKTFG
modifications: not fully specified; D-Cys at 1; D-Trp at 5; GlyN2 building unit at 9 with L-Cys on its omega-amine; C-terminal amide; ReO (oxorhenium(V)) chelated by the two Cys closes the ring
B8: ReO-GF-39 (peptide)
peptide: CXFWWKTFG
modifications: D-Cys at 1; beta-Ala at 2 (written X); D-Trp at 5; GlyN2 building unit at 9 with L-Cys on its omega-amine; C-terminal amide; ReO (oxorhenium(V)) chelated by the two Cys closes the ring
B9: ReO-GF-38 (peptide)
peptide: CXFWWKTFG
modifications: L-Cys at 1; beta-Ala at 2 (written X); D-Trp at 5; GlyN2 building unit at 9 with D-Cys on its omega-amine; C-terminal amide; ReO (oxorhenium(V)) chelated by the two Cys closes the ring
B10: ReO-GF-8 (peptide)
peptide: CXFWWKTFG
modifications: not fully specified; D-Cys at 1; beta-Ala at 2 (written X); D-Trp at 5; GlyN6 building unit at 9 with D-Cys on its omega-amine; C-terminal amide; ReO (oxorhenium(V)) chelated by the two Cys closes the ring
B11: ReO-GF-41 (peptide)
peptide: CGFW[dW]KTF[N(2-Aminoethyl)Gly](Cys)-NH2
modifications: bridge (positions not given here) via ReO; not fully specified (bridges); also: N2S2 oxorhenium(V) chelate via the two Cys
B12: ReO-GF-28 (peptide)
peptide: CGFWWKTFG
modifications: not fully specified; D-Cys at 1; D-Trp at 5; GlyN3 building unit at 9 with D-Cys on its omega-amine; C-terminal amide; ReO (oxorhenium(V)) chelated by the two Cys closes the ring
B13: ReO-GF-31 (peptide)
peptide: CFWWKTFG
modifications: not fully specified; D-Cys at 1; D-Trp at 4; GlyN3 building unit at 8 with L-Cys on its omega-amine; C-terminal amide; ReO (oxorhenium(V)) chelated by the two Cys closes the ring
notes: also called ReO-DCys*-Phe-Trp-DTrp-Lys-Thr-Phe-GlyN3(LCys*)-NH2
B14: ReO-GF-30 (peptide)
peptide: CFW[dW]KTF[GlyN3](dC)-NH2
modifications: bridge (positions not given here) via ReO; not fully specified (bridges); also: N2S2 oxorhenium(V) chelate via the two Cys
B15: ReO-GF-19 (peptide)
peptide: CXFWWKTFG
modifications: D-Cys at 1; GABA at 2 (written X); D-Trp at 5; GlyN3 building unit at 9 with L-Cys on its omega-amine; C-terminal amide; ReO (oxorhenium(V)) chelated by the two Cys closes the ring
B16: ReO-GF-11 (peptide)
peptide: CGFWWKTFG
modifications: not fully specified; D-Cys at 1; D-Trp at 5; GlyN6 building unit at 9 with L-Cys on its omega-amine; C-terminal amide; ReO (oxorhenium(V)) chelated by the two Cys closes the ring
notes: also called ReO-DCys*-Gly-Phe-Trp-DTrp-Lys-Thr-Phe-GlyN6(LCys*)-NH2
B17: ReO-GF-21 (peptide)
peptide: CXFWWKTFG
modifications: L-Cys at 1; beta-Ala at 2 (written X); D-Trp at 5; GlyN3 building unit at 9 with L-Cys on its omega-amine; C-terminal amide; ReO (oxorhenium(V)) chelated by the two Cys closes the ring
notes: also called ReO-LCys*-βAla-Phe-Trp-DTrp-Lys-Thr-Phe-GlyN3(LCys*)-NH2
B18: ReO-GF-13 (peptide)
peptide: CFW[dW]KTF[GlyN6](Cys)-NH2
modifications: bridge (positions not given here) via ReO; not fully specified (bridges); also: oxorhenium(V) metal chelate (N2S2)
B19: ReO-GF-27 (peptide)
peptide: CGFWWKTFG
modifications: not fully specified; D-Cys at 1; D-Trp at 5; GlyN3 building unit at 9 with L-Cys on its omega-amine; C-terminal amide; ReO (oxorhenium(V)) chelated by the two Cys closes the ring
B20: ReO-GF-2 (peptide)
peptide: CXFWWKTFG
modifications: L-Cys at 1; GABA at 2 (written X); D-Trp at 5; GlyN6 building unit at 9 with D-Cys on its omega-amine; C-terminal amide; ReO (oxorhenium(V)) chelated by the two Cys closes the ring
notes: also called ReO-GF-02; ReO-LCys*-GABA-Phe-Trp-DTrp-Lys-Thr-Phe-GlyN6(DCys*)-NH2
B21: ReO-GF-14 (peptide)
peptide: CFWWKTFG
modifications: not fully specified; L-Cys at 1; D-Trp at 4; GlyN6 building unit at 8 with D-Cys on its omega-amine; C-terminal amide; ReO (oxorhenium(V)) chelated by the two Cys closes the ring
notes: also called ReO-LCys*-Phe-Trp-DTrp-Lys-Thr-Phe-GlyN6(DCys*)-NH2
B22: ReO-GF-40 (peptide)
peptide: CXFWWKTFG
modifications: not fully specified; D-Cys at 1; beta-Ala at 2 (written X); D-Trp at 5; GlyN2 building unit at 9 with D-Cys on its omega-amine; C-terminal amide; ReO (oxorhenium(V)) chelated by the two Cys closes the ring
B23: ReO-GF-42 (peptide)
peptide: CGFW[dW]KTF[N(2-Aminoethyl)Gly](dC)-NH2
modifications: bridge (positions not given here) via ReO; not fully specified (bridges); also: N2S2 oxorhenium(V) chelate via the two Cys

Test system: SST-R2 and SST-R5
Assay: not given
Settings: activity described in WO 99/65508; cited from earlier work

Molecule | receptor selectivity
*GABA-Phe-Trp-DTrp-Lys-Thr-Phe-GlyC3*-NH2 [PTR 3173] | selective for SST-R2 and SST-R5

Target: T1, human cloned SST-R2 (human, UniProt P30874 1-369)
T1 construct: whole, on cells; Assayed as membrane preparations of CHO cells expressing the cloned receptor, not as intact cells; also called hSST-R2; human SST-R2
Assay: inhibition of 125I-Tyr11-SRIF-14 binding to membranes of CHO cells expressing cloned human SST-R2
Settings: not given
Procedure: The SST analogs were tested for their potency in inhibition of the binding of ¹²⁵I-Tyr¹¹-SRIF (based on the method described by Raynor et. al., Molecular Pharmnacology 43: 838, 1993) to membrane preparations expressing the transmembranal SST receptors (SST-R1, 2, 3, 4 or 5). The receptor preparations used for these tests were either from the cloned human receptors selectively and stably expressed in Chinese Hamster Ovary (CHO) cells or from cell lines naturally expressing the SST-R5. Typically, cell membranes were homogenized in Tris buffer in the presence of protease inhibitors and incubated for 30-40 minutes with ¹²⁵I-Tyr¹¹-SRIF with different concentrations of the tested sample. The binding reactions were filtered, the filters were washed and the bound radioactivity was counted in β counter after addition of scintillation colution. Non specific binding was defined as the radioactivity remaining bound in the presence of 1 μM unlabeled SRIF-14.

T1 sequence (P30874 whole entry): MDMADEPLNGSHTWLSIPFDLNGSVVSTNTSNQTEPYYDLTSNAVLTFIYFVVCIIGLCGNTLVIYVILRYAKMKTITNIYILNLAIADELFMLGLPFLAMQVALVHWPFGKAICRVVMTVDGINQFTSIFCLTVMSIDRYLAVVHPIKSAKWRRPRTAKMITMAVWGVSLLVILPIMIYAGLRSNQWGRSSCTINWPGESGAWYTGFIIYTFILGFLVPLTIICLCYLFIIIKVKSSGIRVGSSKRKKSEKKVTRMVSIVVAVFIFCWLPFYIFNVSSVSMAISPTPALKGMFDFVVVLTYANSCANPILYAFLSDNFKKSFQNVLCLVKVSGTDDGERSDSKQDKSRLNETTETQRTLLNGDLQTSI

IC50 | Molecule
> 10 nM | B1
10 nM | B2
~100 nM | B3
2 nM | B4
12 nM | B5
16 nM | B6
> 10 nM | B7
10 nM | B8
> 10 nM | B9
5 nM | B10
> 10 nM | B11
> 10 nM | B12
1.6 nM | B13
13 nM | B14
> 10 nM | B15
4 nM | B16
1 nM | B17
~10 nM | B18
20 nM | B19
3.8 nM | B20
7 nM | B21
> 10 nM | B22
> 10 nM | B23
